According to the supplement of paper PMC10567573:

B1: HSP90AB1 (parent)
chain: QVANSAFVERVRKRGFEVVYMTEP
B2: FAM46D (parent)
chain: LELKFVSSLRRQFEFSVDSFQIVL

Variants of: B1
Assay: protein stability index of a GFP-peptide fusion (GPS, HEK-293T) (PSI 1-6); higher = more stable
Conditions: c terminus: a fixed tail appended
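Note: lentivirally expressed fusions sorted by FACS into six bins by GFP to DsRed ratio, PSI derived from sequencing read proportions per bin multiplied by bin number.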

| Variant | protein stability index |
| --- | --- |
| A3K | 2.81 |
| A3Q | 2.46 |
| E9G | 2.74 |
| E9M | 2.69 |
| E9Q | 1.72 |
| E9W | 3.56 |
| E9A | 1.36 |
| E9C | 2.07 |
| E9S | 1.63 |
| E9T | 1.76 |
| E9H | 2.27 |
| E9Y | 2.32 |
| E9F | 2.16 |
| E9K | 2.26 |
| E9P | 2.56 |
| E9L | 3.24 |
| E9N | 1.9 |
| E9V | 1.97 |
| E9R | 1.93 |
| E9D | 2.56 |
| R14G | 2.09 |

| Variant | protein stability index |
| --- | --- |
| R14D | 3.23 |
| R14F | 1.92 |
| R14Q | 2.1 |
| R14L | 2.03 |
| R14N | 2.69 |
| R14H | 1.98 |
| R14I | 2.56 |
| R14P | 2.51 |
| R14C | 1.36 |
| R14K | 2.54 |
| R14M | 1.6 |
| R14E | 2.75 |
| R14S | 2.26 |
| F7S | 2.32 |
| F7W | 1.99 |
| F7T | 3.42 |
| F7R | 2.75 |
| F7D | 3.56 |
| F7H | 3.24 |
| F7E | 3.48 |
| F7P | 3.28 |

| Variant | protein stability index |
| --- | --- |
| F7K | 3.03 |
| F7M | 2.35 |
| F7Y | 2.38 |
| F7V | 2.84 |
| R10T | 2.29 |
| R10M | 1.54 |
| R10G | 2.17 |
| R10C | 2.05 |
| R10L | 1.81 |
| R10P | 2.57 |
| R10Q | 2.17 |
| R10V | 1.76 |
| R10Y | 1.58 |
| R10N | 2.99 |
| R10E | 2.28 |
| R10H | 2.33 |
| R10I | 1.94 |
| R10D | 2.58 |
| R10F | 1.29 |
| R10A | 2.18 |

Variants of: B2
Assay: as above
Conditions: c terminus: a fixed tail appended

| Variant | protein stability index |
| --- | --- |
| S16H | 2.69 |
| S16T | 4.1 |
| S16A | 3.32 |
| S16N | 3.05 |
| Q12H | 2.46 |
| Q12N | 2.49 |
| Q12D | 2.52 |
| L1Y | 2.56 |
| L1S | 2.57 |
| L1H | 2.49 |
| L1N | 2.9 |
| L1V | 2.79 |
| L1W | 1.92 |
| L1A | 2.03 |
| L3P | 1.62 |
| L3T | 3.15 |
| L3N | 2.3 |
| L3C | 2.84 |
| V17K | 2.76 |
| V17L | 3.25 |
| V17S | 2.19 |
| V17F | 2.88 |
| V17G | 2.62 |
| V17C | 3.37 |
| F20W | 3.5 |
| F20C | 2.73 |
| F20T | 1.62 |

| Variant | protein stability index |
| --- | --- |
| F20Y | 3.11 |
| F20N | 3.48 |
| F20A | 2.99 |
| V6M | 2.61 |
| V6L | 2.81 |
| E2K | 3.23 |
| E2S | 3 |
| E2H | 2.95 |
| E2A | 2.56 |
| E2V | 3.32 |
| E2D | 2.46 |
| Q21N | 2.75 |
| Q21M | 2.78 |
| Q21S | 2.89 |
| Q21A | 2.85 |
| Q21E | 2.47 |
| Q21I | 3.59 |
| Q21Y | 2.8 |
| S8T | 3 |
| S8F | 1.95 |
| S8Q | 2.95 |
| S8D | 2.97 |
| F5Y | 3.22 |
| F5G | 2.6 |
| F5Q | 2.59 |
| F5K | 1.64 |
| I22F | 3.23 |

| Variant | protein stability index |
| --- | --- |
| I22C | 2.93 |
| I22H | 1.5 |
| I22D | 2.6 |
| I22M | 3.31 |
| I22E | 2.65 |
| I22S | 2.36 |
| E14T | 4.77 |
| E14C | 3.17 |
| E14W | 2.46 |
| D18A | 4.25 |
| D18L | 2.1 |
| D18H | 4.76 |
| D18W | 3.27 |
| D18M | 4.61 |
| S19H | 3.92 |
| S19G | 3.42 |
| S19W | 3.19 |
| S19E | 3.31 |
| S19L | 2.88 |
| S19I | 4.06 |
| S19R | 2.38 |
| S19A | 3.69 |
| L9F | 2.95 |
| L9Y | 2.01 |
| L9H | 2.9 |
| L9S | 3.64 |
| V23Y | 3.37 |

| Variant | protein stability index |
| --- | --- |
| V23A | 3.08 |
| L24Y | 2.7 |
| L24F | 3.74 |
| L24G | 2.6 |
| L24R | 2.73 |
| L24H | 4.63 |
| L24P | 2.58 |
| R10W | 2.01 |
| F13N | 2.82 |
| F13V | 3.73 |
| F13R | 3.23 |
| F13K | 2.91 |
| K4I | 2.9 |
| K4G | 2.9 |
| K4Y | 2.06 |
| K4H | 3.46 |
| K4S | 3.75 |
| K4L | 3.25 |
| S7H | 3.18 |
| S7C | 3.17 |
| S7T | 1.5 |
| F15M | 2.58 |
| R11A | 4.7 |
| R11H | 2.97 |
